# Experimental data as given in US12467929.
# Assays:
# [1] = target: recombinant UBE3A protein (Homo sapiens (Human)) (UniProt Q05086); assay: 3-step Simoa; capture GTX; UBE3A 31.3 ng/ml
# [2] = target: recombinant UBE3A protein (Homo sapiens (Human)) (UniProt Q05086); assay: 3-step Simoa; capture GTX; UBE3A 500 ng/ml
# [3] = target: recombinant UBE3A protein (Homo sapiens (Human)) (UniProt Q05086); assay: 3-step Simoa; capture MS 2F6; UBE3A 0.010 ng/ml
# [4] = target: recombinant UBE3A protein (Homo sapiens (Human)) (UniProt Q05086); assay: Simoa; capture GTX + helper beads; 3E5 0.2 ug/ml; UBE3A 0.800 ng/ml
# [5] = target: recombinant UBE3A protein (Homo sapiens (Human)) (UniProt Q05086); assay: Simoa head-to-head, Table 11; capture GTX; UBE3A 4.00 ng/ml
# [6] = target: recombinant UBE3A protein (Homo sapiens (Human)) (UniProt Q05086); assay: Simoa; capture GTX, no helper beads; 3E5 0.1 ug/ml; UBE3A 0.00128 ng/ml
# [7] = target: recombinant UBE3A protein (Homo sapiens (Human)) (UniProt Q05086); assay: Simoa; capture GTX; 3E5 0.1 ug/ml; UBE3A 0.160 ng/ml
# [8] = target: recombinant UBE3A protein (Homo sapiens (Human)) (UniProt Q05086); assay: Simoa; capture GTX; SBG 150 pm; UBE3A 0.0320 ng/ml
# [9] = target: recombinant UBE3A protein (Homo sapiens (Human)) (UniProt Q05086); assay: Simoa; capture GTX; 3E5 0.4 ug/ml; UBE3A 0.160 ng/ml
# [10] = target: recombinant UBE3A protein (Homo sapiens (Human)) (UniProt Q05086); assay: Simoa; capture GTX + helper beads; 3E5 0.2 ug/ml; UBE3A 0.00640 ng/ml
# [11] = target: recombinant UBE3A protein (Homo sapiens (Human)) (UniProt Q05086); assay: Simoa head-to-head, Table 10; capture MS 2F6; UBE3A 100 ng/ml
# [12] = target: recombinant UBE3A protein (Homo sapiens (Human)) (UniProt Q05086); assay: Simoa; capture GTX, no helper beads; 3E5 0.2 ug/ml; UBE3A 0.800 ng/ml
# [13] = target: recombinant UBE3A protein (Homo sapiens (Human)) (UniProt Q05086); assay: Simoa; capture GTX; SBG 75 pm; UBE3A 0.160 ng/ml
# [14] = target: recombinant UBE3A protein (Homo sapiens (Human)) (UniProt Q05086); assay: Simoa; capture GTX; 3E5 0.8 ug/ml; UBE3A 4.00 ng/ml
# [15] = target: recombinant UBE3A protein (Homo sapiens (Human)) (UniProt Q05086); assay: 3-step Simoa, 120 min bead step; capture GTX; UBE3A 500 ng/ml
# [16] = target: recombinant UBE3A protein (Homo sapiens (Human)) (UniProt Q05086); assay: 3-step Simoa, 120 min bead step; capture GTX; UBE3A 100 ng/ml
# [17] = target: recombinant UBE3A protein (Homo sapiens (Human)) (UniProt Q05086); assay: Simoa; capture GTX + helper beads; 3E5 0.1 ug/ml; UBE3A 0.160 ng/ml
# [18] = target: recombinant UBE3A protein (Homo sapiens (Human)) (UniProt Q05086); assay: Simoa; capture GTX, no helper beads; 3E5 0.4 ug/ml; UBE3A 0.800 ng/ml
# [19] = target: recombinant UBE3A protein (Homo sapiens (Human)) (UniProt Q05086); assay: Simoa; capture GTX; 3E5 0.4 ug/ml; UBE3A 4.00 ng/ml
# [20] = target: recombinant UBE3A protein (Homo sapiens (Human)) (UniProt Q05086); assay: Simoa; capture GTX, no helper beads; 3E5 0.2 ug/ml; UBE3A 0.0320 ng/ml
# [21] = target: recombinant UBE3A protein (Homo sapiens (Human)) (UniProt Q05086); assay: Simoa; capture GTX, no helper beads; 3E5 0.1 ug/ml; UBE3A 0.0320 ng/ml
# UniProt Q05086, sequence (Q05086 whole entry): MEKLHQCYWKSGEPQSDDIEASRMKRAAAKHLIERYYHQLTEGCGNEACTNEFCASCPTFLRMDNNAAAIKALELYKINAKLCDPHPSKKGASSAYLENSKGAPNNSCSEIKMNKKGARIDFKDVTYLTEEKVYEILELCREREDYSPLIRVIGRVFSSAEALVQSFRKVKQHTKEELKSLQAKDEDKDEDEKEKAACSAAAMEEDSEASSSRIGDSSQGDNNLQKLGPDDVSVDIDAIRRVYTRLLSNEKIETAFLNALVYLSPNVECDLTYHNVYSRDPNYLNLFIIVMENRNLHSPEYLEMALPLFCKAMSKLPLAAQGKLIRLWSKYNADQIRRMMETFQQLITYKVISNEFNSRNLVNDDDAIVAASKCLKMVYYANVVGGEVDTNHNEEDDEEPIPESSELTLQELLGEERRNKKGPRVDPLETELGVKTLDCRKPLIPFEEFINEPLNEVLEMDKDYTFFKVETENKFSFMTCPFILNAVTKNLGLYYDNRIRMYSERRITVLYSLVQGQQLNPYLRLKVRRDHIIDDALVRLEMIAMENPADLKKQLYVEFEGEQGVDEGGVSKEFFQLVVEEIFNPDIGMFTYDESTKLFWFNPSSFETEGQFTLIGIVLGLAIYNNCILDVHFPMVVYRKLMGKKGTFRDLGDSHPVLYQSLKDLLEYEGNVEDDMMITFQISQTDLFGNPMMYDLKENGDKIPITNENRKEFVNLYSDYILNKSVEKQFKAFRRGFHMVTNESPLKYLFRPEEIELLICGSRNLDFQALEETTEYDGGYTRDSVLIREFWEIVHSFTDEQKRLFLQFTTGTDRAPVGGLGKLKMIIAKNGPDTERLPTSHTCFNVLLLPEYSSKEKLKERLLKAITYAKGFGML
substance,measurement,setting,value
NB500-240 (Novus) (antibody),AEB1,[1],0.0425
same,AEB2,[1],0.046
same,Ave AEB,[1],0.0443
same,Signal to Background,[1],20.3
same,AEB1,[2],0.229
same,AEB2,[2],0.218
same,Ave AEB,[2],0.224
same,Signal to Background,[2],102
"anti-UBE3A antibody 3E5 (SAB1404508-100 ug, Millipore-Sigma)",AEB1,[3],0.0035
same,AEB2,[3],0.0048
same,Ave AEB,[3],0.0042
same,Signal to Background,[3],1.06
same,AEB1,[4],0.252
same,AEB2,[4],0.261
same,Average AEB,[4],0.257
same,Signal to Background,[4],26.5
same,AEB1,[5],0.269
same,AEB2,[5],0.262
same,Ave AEB,[5],0.266
same,Signal to Background,[5],32.4
same,AEB1,[6],0.005
same,AEB2,[6],0.0075
same,Average AEB,[6],0.0062
same,Signal to Background,[6],1.09
same,AEB1,[7],0.0828
same,AEB2,[7],0.0846
same,Average AEB,[7],0.0837
same,Signal to Background,[7],4.34
same,AEB1,[8],0.0262
same,AEB2,[8],0.0285
same,AEB3,[8],0.0282
same,Average AEB,[8],0.0276
same,Signal to Background,[8],2.08
same,AEB1,[9],0.172
same,AEB2,[9],0.165
same,AEB3,[9],0.174
same,Average AEB,[9],0.171
same,Signal to Background,[9],2.72
same,AEB1,[10],0.0133
same,AEB2,[10],0.0127
same,Average AEB,[10],0.013
same,Signal to Background,[10],1.34
same,AEB1,[11],2.71
same,AEB2,[11],2.88
same,Ave AEB,[11],2.8
same,Signal to Background,[11],207
same,AEB1,[12],0.25
same,AEB2,[12],0.247
same,Average AEB,[12],0.249
same,Signal to Background,[12],25.7
same,AEB1,[13],0.0299
same,AEB2,[13],0.0294
same,AEB3,[13],0.03
same,Average AEB,[13],0.0298
same,Signal to Background,[13],6.82
same,AEB1,[14],3.18
same,AEB2,[14],3.38
same,AEB3,[14],3.16
same,Average AEB,[14],3.24
same,Signal to Background,[14],26.4
same,AEB1,[15],16.8
same,AEB2,[15],16.8
same,Ave AEB,[15],16.8
same,Signal to Background,[15],9850
same,AEB1,[16],7.86
same,AEB2,[16],8.12
same,Ave AEB,[16],7.99
same,Signal to Background,[16],4690
same,AEB1,[17],0.0417
same,AEB2,[17],0.0425
same,Average AEB,[17],0.0421
same,Signal to Background,[17],7.34
same,AEB1,[18],0.335
same,AEB2,[18],0.338
same,Average AEB,[18],0.337
same,Signal to Background,[18],17.2
same,AEB1,[19],2.3
same,AEB2,[19],2.58
same,AEB3,[19],2.4
same,Average AEB,[19],2.43
same,Signal to Background,[19],38.8
same,AEB1,[20],0.0229
same,AEB2,[20],0.0244
same,Average AEB,[20],0.0236
same,Signal to Background,[20],2.44
same,AEB1,[21],0.0108
same,AEB2,[21],0.0159
same,Average AEB,[21],0.0133
same,Signal to Background,[21],2.33
